# Experimental data reported in publication PMC12118398.
# Biological target: FXR1-CFP (human)
# Assay: FRET or BRET
# FXR1-CFP (natural protein), sequence (P51114 2-621): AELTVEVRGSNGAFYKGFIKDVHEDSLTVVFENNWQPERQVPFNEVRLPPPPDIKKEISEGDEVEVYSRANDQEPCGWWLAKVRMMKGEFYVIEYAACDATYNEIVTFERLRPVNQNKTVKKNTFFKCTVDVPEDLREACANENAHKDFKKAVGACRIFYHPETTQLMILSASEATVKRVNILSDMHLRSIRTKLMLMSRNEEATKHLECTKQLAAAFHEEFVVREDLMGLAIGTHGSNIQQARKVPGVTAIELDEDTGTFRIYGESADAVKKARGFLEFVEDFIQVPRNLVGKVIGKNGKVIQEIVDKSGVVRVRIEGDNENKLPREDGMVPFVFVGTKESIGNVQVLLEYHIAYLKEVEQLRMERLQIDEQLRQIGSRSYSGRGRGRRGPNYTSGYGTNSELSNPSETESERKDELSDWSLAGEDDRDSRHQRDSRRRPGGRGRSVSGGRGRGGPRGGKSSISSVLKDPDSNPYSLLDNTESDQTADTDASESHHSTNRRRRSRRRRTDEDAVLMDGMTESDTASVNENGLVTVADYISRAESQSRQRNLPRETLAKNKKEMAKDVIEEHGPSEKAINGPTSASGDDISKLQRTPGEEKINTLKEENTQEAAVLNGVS
# SFPQ-YFP (natural protein), sequence (P23246 whole entry): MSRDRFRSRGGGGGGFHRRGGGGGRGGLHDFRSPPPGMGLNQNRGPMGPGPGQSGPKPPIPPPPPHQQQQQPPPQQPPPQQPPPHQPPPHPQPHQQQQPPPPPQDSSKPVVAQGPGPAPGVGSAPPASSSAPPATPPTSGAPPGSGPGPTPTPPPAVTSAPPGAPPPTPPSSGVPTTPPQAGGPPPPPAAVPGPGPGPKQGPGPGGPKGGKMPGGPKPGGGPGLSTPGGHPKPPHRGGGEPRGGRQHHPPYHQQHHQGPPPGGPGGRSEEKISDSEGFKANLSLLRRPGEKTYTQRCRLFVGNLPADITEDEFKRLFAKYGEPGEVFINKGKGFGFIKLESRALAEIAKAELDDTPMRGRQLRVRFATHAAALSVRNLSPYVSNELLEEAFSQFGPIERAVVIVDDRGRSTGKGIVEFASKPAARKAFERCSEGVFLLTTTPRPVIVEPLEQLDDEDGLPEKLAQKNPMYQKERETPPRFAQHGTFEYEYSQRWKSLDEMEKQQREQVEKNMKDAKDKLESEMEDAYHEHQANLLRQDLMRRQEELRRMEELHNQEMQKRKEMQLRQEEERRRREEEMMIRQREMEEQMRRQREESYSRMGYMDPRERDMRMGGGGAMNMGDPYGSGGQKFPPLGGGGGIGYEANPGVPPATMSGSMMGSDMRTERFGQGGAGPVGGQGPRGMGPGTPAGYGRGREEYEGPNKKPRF
# YFP-FXR2_(14-399), sequence (P51116 14-399): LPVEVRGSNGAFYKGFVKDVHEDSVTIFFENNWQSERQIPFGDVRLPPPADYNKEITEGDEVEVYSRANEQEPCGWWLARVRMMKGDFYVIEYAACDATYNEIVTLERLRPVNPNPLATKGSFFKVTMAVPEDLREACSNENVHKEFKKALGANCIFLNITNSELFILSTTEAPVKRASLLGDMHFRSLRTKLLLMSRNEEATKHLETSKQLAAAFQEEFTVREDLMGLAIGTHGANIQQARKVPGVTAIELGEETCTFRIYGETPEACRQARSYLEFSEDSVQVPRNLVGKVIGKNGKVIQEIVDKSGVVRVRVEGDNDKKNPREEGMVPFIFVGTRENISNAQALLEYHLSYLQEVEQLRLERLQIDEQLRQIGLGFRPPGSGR
row,Substance,FRET efficiency [%]
1,SFPQ-YFP (natural protein),9.1
2,YFP-FXR2_(14-399) (from UniProt P51116 14-399) (domain or fragment),8.3
3,YFP-FMRP_(1-380) (from UniProt Q06787 1-380) (domain or fragment),9.7
4,FXR1-CFP (natural protein),8.9
